These results are taken from article PMC5745072.

The nature of this data set: Hampton Screens I and II, vapor diffusion. To be noted: glycan lost; control: glycosylated GOx from P. pastoris.

B1: Glucose oxidase (GOx), mutants A2 and F9: Endo H (protein)
parent chain: MQTLLVSSLVVSLAAALPHYIRSNGIEASLLTDPKDVSGRTVDYIIAGGGLTGLTTAARLTENPNISVLVIESGSYESDRGPIIEDLNAYGDIFGSSVDHAYETVELATNNQTALIRSGNGLGGSTLVNGGTWTRPHKAQVDSWETVFGNEGWNWDNVAAYSLQAERARAPNAKQIAAGHYFNASCHGVNGTVHAGPRDTGDDYSPIVKALMSAVEDRGVPTKKDFGCGDPHGVSMFPNTLHEDQVRSDAAREWLLPNYQRPNLQVLTGQYVGKVLLSQNGTTPRAVGVEFGTHKGNTHNVYAKHEVLLAAGSAVSPTILEYSGIGMKSILEPLGIDTVVDLPVGLNLQDQTTATVRSRITSAGAGQGQAAWFATFNETFGDYSEKAHELLNTKLEQWAEEAVARGGFHNTTALLIQYENYRDWIVNHNVAYSELFLDTAGVASFDVWDLLPFTRGYVHILDKDPYLHHFAYDPQYFLNELDLLGQAAATQLARNISNSGAMQTYFAGETIPGDNLAYDADLSAWTEYIPYHFRPNYHGVGTCSMMPKEMGGVVDNAARVYGVQGLRVIDGSIPPTQMSSHVMTVFYAMALKISDAILEDYASMQ
With B1, the “other: crystallisability” value is on record as “increases”.
